B1: Storkhead-box protein 2, residues 64 to 141; numbered along this chain, Q9P2F5 (parent)
chain: SPISQSQFIPLGEILCLAISAMNSARKPVTQEALMEHLTTCFPGVPTPSQEILRHTLNTLVRERKIYPTPDGYFIVTP

Variants of: B1
Experiment: abundance fitness (aPCA) (normalised: wild type 0, dead -1); higher = more abundant; growth selection in yeast, the domain comes from the species named
Settings: Homo sapiens

Abundance fitness, by site and new letter:
V29: S -0.065, D -0.928, F -0.213, G -0.417, Q -0.386, Y -0.592, P -0.17, M -0.278, T -0.162, R -0.792, H -0.496, L -0.408, W -0.363, N -1.07, C 0.02
M35: F 0.04, T -0.024, C -0.038, W -0.124, A 0.02, V -0.092, Q -0.063, Y -0.164, N -0.249, S 0.005, I 0.044, G -0.049, H 0.018, L -0.058, P -0.361, R -0.103, D -0.191, K -0.299, E -0.113
R26: W -0.134, V -0.09, Q -0.018, F -0.089, M -0.124, T -0.005, H -0.09, A -0.021, P -0.195, S -0.04, C -0.115, Y -0.248, D -0.011, N 0.023, I -0.199, G -0.009, L -0.078, E -0.016
A25: Q -0.021, P -0.368, V -0.033, R -0.066, S -0.055, I -0.053, M -0.048, G -0.175, C -0.05, N -0.068, W -0.189, E -0.049, F -0.08, H -0.001, L -0.026, D 0.018, K -0.007
P28: S -0.087, N -0.024, I -0.091, T 0.009, Q 0.063, W -0.214, V -0.072, F -0.187, A -0.016, R -0.054, G -0.133, H -0.015, Y -0.032, L -0.2, M -0.005, K -0.076
S24: K 0.037, C -0.084, F -0.162, E 0.009, Y -0.093, M -0.125, V -0.007, R -0.018, I 0.018, L -0.078, N 0.063, T 0.058, A -0.002, D -0.018, H -0.141, P -0.34, W -0.226, Q 0.026
L38: K -0.608, Q -0.865, V -0.075, D -0.915, C -0.316, F 0.014, T -0.258, G -0.787, P -0.998, R -0.894, Y -0.391, S -0.613, I -0.091, H -0.388, A -0.386, W -0.048
N23: V -0.143, A -0.156, H -0.111, Q -0.123, Y -0.357, K -0.451, W -0.31, G -0.126, P -0.564, D -0.061, L -0.354, F -0.535, S -0.12, R -0.156, T -0.144, E -0.108, M -0.211, C -0.226, I -0.296
E36: A -0.063, H -0.082, N 0.054, M -0.059, F -0.158, D -0.012, W -0.187, V -0.102, P -0.424, L -0.058, G -0.028, C -0.064, Y -0.144, T -0.006, R 0.003, K -0.008, S -0.001, Q 0.029
M22: V -0.354, W -0.336, Y -0.243
T40: R 0.016, M -0.104, G -0.045, D -0.069, F -0.105, I -0.066, S -0.005, K -0.042
